The labels stand for the following.
T1: human CD112R over-expressed on Jurkat cells (human, UniProt Q6DKI7 1-326)
T1 construct: whole, on cells; also called Jurkat-CD112R OE; PVRIG
T1 sequence (looked up): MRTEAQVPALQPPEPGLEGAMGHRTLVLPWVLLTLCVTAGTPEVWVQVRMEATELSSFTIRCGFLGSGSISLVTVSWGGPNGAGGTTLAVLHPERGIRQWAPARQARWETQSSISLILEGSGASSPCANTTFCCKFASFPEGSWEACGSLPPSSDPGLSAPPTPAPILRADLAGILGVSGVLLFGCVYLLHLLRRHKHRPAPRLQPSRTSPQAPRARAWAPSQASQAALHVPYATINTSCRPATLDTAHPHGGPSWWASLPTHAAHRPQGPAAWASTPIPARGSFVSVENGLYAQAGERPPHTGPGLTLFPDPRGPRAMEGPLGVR

B1: Antibody 2 (antibody, V domains shown)
VH: EVQLVESGGGLVKPGGSLRLSCAASGFTFSEYTMNWVRQAPGKGLEWVSAIVGSGDSTYYADSVKGRFTISRDNSKNTLYLQMNSLRAEDTAVYYCAKDYSSGDWIDYGMDVWGQGTTVTVSS
VL: DIQMTQSPSSLSASVGDRVTITCQASQDISNYLNWYQQKPGKAPKLLIYDASNLATGVPSRFSGSGSGTDFTFTISSLQPEDIATYYCQQFDLLPPTFGGGTKVEIK
notes: Tested as IgG detected with anti-human IgG Fc, compared with an IgG1 isotype control; also called antibody clone number 2; clone 2
B2: Antibody 5 (antibody, V domains shown)
VH: B1 VH with V5L, K13Q, E31D, T33A, N35I, V52S, S54G, D56E
VL: B1 VL
notes: Tested as IgG detected with anti-human IgG Fc, compared with an IgG1 isotype control; also called antibody clone number 5; clone 5
B3: Antibody 38 (antibody, V domains shown)
VH: EVQLLESGGGLVQPGGSLRLSCAASGFTFSGHLMSWVRQAPGKGLEWVSAISGSAGETYYADSVKGRFTISRDNSKNTLYLQMNSLRAEDTAVYYCARDAYYDDWSGWADWYFDLWGRGTLVTVSS
VL: EIVLTQSPATLSLSPGERATLSCRASQSVSRYLAWYQQKPGQAPRLLIYDASNRATGIPARFSGSGSGTDFTLTISSLEPEDFAVYYCQQVSLLPPTFGGGTKVEIK
notes: Tested as IgG detected with anti-human IgG Fc, compared with an IgG1 isotype control; also called antibody clone number 38; clone 38
B4: Antibody 32 (antibody, V domains shown)
VH: QVQLVQSGAEVKKPGSSVKVSCKASGGTFSSYAISWVRQAPGQGLEWMGGIIPISGTANYAQKFQGRVTITADESTSTAYMELSSLRSEDTAVYYCARDTGRGYTRHFWFDPWGQGTLVTVSS
VL: DIQMTQSPSSLSASVGDRVTITCRASQSISSYLNWYQQKPGKAPKLLIYAASSLQSGVPSRFSGSGSGTDFTLTISSLQPEDFATYYCQQSDILYTFGGGTKVEIK
notes: Tested as IgG detected with anti-human IgG Fc, compared with an IgG1 isotype control; Parent of antibodies 33, 34, 35 and 36; also called antibody clone number 32; parent clone 32
B5: Antibody 46 (antibody, V domains shown)
VH: EVQLVESGGGLVQPGRSLRLSCTASGFTFGDYAMSWFRQAPGKGLEWVGFIGSKAYGGTTEYTASVKGRFTISRDGSKSIAYLQMNSLKTEDTAVYYCARGPRRYTYGMDVWGQGTTVTVSS
VL: B4 VL with D92S, I93T, L94P, Y95L
notes: also called antibody clone number 46; clone 46
B6: Antibody 36 (antibody, V domains shown)
VH: B4 VH with S30A, S31T, I52F, I54L
VL: B4 VL
notes: Tested as IgG detected with anti-human IgG Fc, compared with an IgG1 isotype control; also called antibody clone number 36; clone 36
B7: Antibody 33 (antibody, V domains shown)
VH: B4 VH with S30G, S31N, S55P, T57I
VL: B4 VL
notes: Tested as IgG detected with anti-human IgG Fc, compared with an IgG1 isotype control; also called antibody clone number 33; clone 33
B8: Antibody 58 (antibody, V domains shown)
VH: B5 VH with A55F, T59E
VL: B4 VL with D92S, I93T, L94P, Y95L
notes: Tested as IgG detected with anti-human IgG Fc, compared with an IgG1 isotype control; also called antibody clone number 58; clone 58
B9: Antibody 35 (antibody, V domains shown)
VH: B4 VH with Y32A, G50N, S55V, T57I
VL: B4 VL
notes: Tested as IgG detected with anti-human IgG Fc, compared with an IgG1 isotype control; also called antibody clone number 35; clone 35
B10: Antibody 34 (antibody, V domains shown)
VH: B4 VH with Y32A, I52F, T57H
VL: B4 VL
notes: Tested as IgG detected with anti-human IgG Fc, compared with an IgG1 isotype control; also called antibody clone number 34; clone 34
B11: Antibody 15 (antibody, V domains shown)
VH: EVQLVESGGGLVQPGRSLRLSCTASGFTFGDVAMSWFRQAPGKGLEWVGYIGSKAYGGETEYTASVKGRFTISRDGSKSIAYLQMNSLKTEDTAVYYCARAGHSYGSIASNWFDPWGQGTLVTVSS
VL: DIQMTQSPSSLSASVGDRVTITCRASQSISSYLNWYQQKPGKAPKLLIYGASSLQSGVPSRFSGSGSGTDFTLTISSLQPEDFATYYCQQGFYTPWTFGGGTKVEIK
notes: Tested as IgG detected with anti-human IgG Fc, compared with an IgG1 isotype control; also called antibody clone number 15; clone 15
B12: Antibody 44 (antibody, V domains shown)
VH: QVQLVQSGAEVKKPGSSVKVSCKASGGTFDNYYISWVRQAPGQGLEWMGGIFPIFGTANYAQKFQGRVTITADESTSTAYMELSSLRSEDTAVYYCAREVGHYSGSPYYMDVWGKGTTVTVSS
VL: DIQMTQSPSTLSASVGDRVTITCRASQSINSWLAWYQQKPGKAPKLLISDASSLESGVPSRFSGSGSGTEFTLTISSLQPDDFATYYCQQVGPYLTFGGGTKVEIK
notes: Tested as IgG detected with anti-human IgG Fc, compared with an IgG1 isotype control; also called antibody clone number 44; clone 44
B13: Antibody 10 (antibody, V domains shown)
VH: EVQLVESGGGLVQPGRSLRLSCAASGFTFDDYAVHWVRQAPGKGLEWVSGISWSSGLIGYADSVKGRFTISRDNAKNSLYLQMNSLRAEDTAVYYCAKGPPTYQDYFDLWGRGTLVTVSS
VL: EIVLTQSPATLSLSPGERATLSCRASQSVSRYLAWYQQKPGQAPRLLIYDASNRATGIPARFSGSGSGTDFTLTISSLEPEDFAVYYCQQVSFFPPITFGGGTKVEIK
notes: Tested as IgG detected with anti-human IgG Fc, compared with an IgG1 isotype control; also called antibody clone number 10; clone 10

Substitutions are numbered along the chain they refer to.

In the first assay the target is T1, human CD112R over-expressed on Jurkat …. The assay is described as follows: flow cytometry on Jurkat cells over-expressing human CD112R, 0.63 ug/mL antibody. The procedure: The ability of anti-CD112R antibodies to bind to CD112R expressed on cells was evaluated. 1×10⁵ Jurkat cells (acute T cell leukemia cell line, ATCC # TIB-152) that were either wild type or engineered to over-express human CD112R (Jurkat-CD112R OE) were added to each well of a 96-well V bottom plate and stained with either anti-CD112R antibodies or an IgG1 isotype control (0.63 μg/mL) for 1 hour at 4° C. Cells were washed twice with PBS+2% FCS and resuspended with Alexa Fluor® 647 anti-human IgG Fc antibody (Biolegend, Cat #409320) diluted 1:100 in PBS+2% FCS and incubated at 4° C. for 30 minutes. Cells were subsequently washed twice and resuspended in PBS+2% FCS. Cellular data was acquired using a LSRFortessa X-20 (BD Biosciences) and analyzed with FlowJo software (Tree Star).
Results are depicted in FIG. 1. Quantitation of antibody binding to Jurkat-CD112R OE cells was assessed by the geometric mean fluorescent intensity (gMFI) of the Alexa Fluor® 647 signal.
A general note: Flow cytometry measures light scatter and fluorescence of single cells or particles in a stream.
With B1, the “Jurkat-CD112R over-expressed (OE) gMFI (fold increase over isotype)” value turned out to be 63.9 fold. Still for that read-out and setting: the result for B2 reads 63.3 fold. In the case of B3, the “Jurkat-CD112R over-expressed (OE) gMFI (fold increase over isotype)” value was found to be 51.7 fold.

For B4, the “Jurkat-CD112R over-expressed (OE) gMFI (fold increase over isotype)” value came to 27.9 fold.

As for B5, the “Jurkat-CD112R over-expressed (OE) gMFI (fold increase over isotype)” value amounted to 23.8 fold.

On to B6, for which the “Jurkat-CD112R over-expressed (OE) gMFI (fold increase over isotype)” value is 31 fold.

B7: the “Jurkat-CD112R over-expressed (OE) gMFI (fold increase over isotype)” value was determined as 34.2 fold. Still for that read-out and setting: the result for B8 reads 37.3 fold.

Take B9: the “Jurkat-CD112R over-expressed (OE) gMFI (fold increase over isotype)” value turned out to be 32.1 fold. Still for that read-out and setting: the result for B10 reads 33.8 fold; that for B11, 53.2 fold. The same measure, in the same setting: the result for B12 reads 46.9 fold; that for B13, 55.7 fold.

A further assay addresses T2, mouse CD112R over-expressed on 293T cells (mouse).
T2 construct: whole, on cells; also called 293T.mCD112R; 293T-mouse CD112R
Description: flow cytometry on 293T cells over-expressing mouse CD112R. On the procedure:
The ability of anti-CD112R antibodies to bind to mouse CD112R was evaluated on cells overexpressing mouse CD112R. 0.8×10⁵ 293T cells (ATCC CRL-3216) that were engineered to overexpress mouse CD112R (293T.mCD112R) were added to each well of a 96-well V bottom plate and stained with either anti-CD112R antibodies or an IgG1 isotype control at a starting concentration of […], with 3-fold serial dilutions for 30 minutes at 4° C. Cells were washed twice with PBS+2% FCS and resuspended with Alexa Fluor® 647 anti-human IgG Fc antibody (Biolegend, Cat #409320) diluted 1:100 in PBS+2% FCS and incubated at 4° C. for 20 minutes. Cells were subsequently washed twice and resuspended in PBS+2% FCS. Cellular data was acquired using a LSRFortessa X-20 (BD Biosciences) and analyzed with FlowJo software (Tree Star).
Results are depicted in FIG. 17 and Table 11. Quantitation of antibody binding to 293T.mCD112R cells was assessed by the geometric mean fluorescent intensity (gMFI) of the Alexa Fluor® 647 signal.
Take B4: the “293T-mouse CD112R gMFI (fold increase over isotype)” value worked out at 14.9 fold.

Consider B5, for which the “293T-mouse CD112R gMFI (fold increase over isotype)” value came out at 74.8 fold. Still for that read-out and setting: the result for B6 reads 76.3 fold; that for B7, 73.3 fold. For the molecule B8, the “293T-mouse CD112R gMFI (fold increase over isotype)” value was 79.4 fold.

For B9, the “293T-mouse CD112R gMFI (fold increase over isotype)” value turned out to be 55.6 fold. Turning to B10, the “293T-mouse CD112R gMFI (fold increase over isotype)” value turned out to be 72.2 fold.

Source of the values: patent US20200040081A1 (SURFACE ONCOLOGY, published 2020).
